Numbering of substitutions follows the chain as printed. In names and notes the source's numbering stands.

The target in test [1] is H3K9me3 peptide. Nature of the test: fluorescence polarization, FITC-peptide 0.5 nM. For orientation: Fluorescence polarisation rises when a labelled molecule tumbles more slowly, as on binding a larger partner.
Test [2] concerns the target H3K9me3 peptide. The test can be described thus: ITC, peptide titrated into the chromodomain, 25 C. Background: ITC needs no label: the signal is the heat of the interaction.
The target in test [3] is H3K9me3 peptide. Nature of the test: BLI, biotinylated peptide on streptavidin tips, steady state.

B1: Cbx7.V1 chromodomain (tags removed) (designed binder)
chain: SAIGDDIFAVESIRKKRVRKGKVEYLVKWEGWPLEYSTWEPEEHILDPRLVMAYEEKEERDRASGYRKRGPK
The term Kd denotes the concentration at which binding is half-saturated. Read a high Kd as weaker binding. Consider B1, for which the Kd with H3K9me3 peptide [1] and with H3K9me3 peptide [2] was 7 µM throughout.

B2: Cbx7.VD chromodomain (tags removed) (designed binder)
chain: B1 chain with D5E, I7V, L34P, E35K
The molecule B2 displayed a Kd in the test with H3K9me3 peptide [1] of 8 µM. In other words, the single-digit micromolar range.

B3: Cbx7.V1 chromodomain, His6- and Flag-tagged (designed binder, not shown: small tags and cut ends)
chain: B1 chain
In the test with H3K9me3 peptide [3], B3 gave a Kd of 4.5 µM.

B4: Cbx7.wt chromodomain (tags removed), O95931 4-75 (protein)
chain: B1 chain with D5E, D6Q, I7V, E30K, L34P, E35K
In the test with H3K9me3 peptide [1], B4 came in with a Kd of 30 µM. This counts as double-digit micromolar.

B5: Cbx7.V1 back-mutant D8E, His6- and Flag-tagged (designed binder, not shown: small tags and cut ends)
chain: B1 chain with D5E
Regarding B5, the Kd with H3K9me3 peptide [3] is 5 µM.

B6: Cbx7.V1 back-mutant I10V, His6- and Flag-tagged (designed binder, not shown: small tags and cut ends)
chain: B1 chain with I7V
B6 displayed a Kd with H3K9me3 peptide [3] of 3.5 µM.

B7: Cbx7.V1 back-mutant L37P, His6- and Flag-tagged (designed binder, not shown: small tags and cut ends)
chain: B1 chain with L34P
As to B7, in the test with H3K9me3 peptide [3], the Kd stood at 3 µM.

B8: Cbx7.V1 back-mutant E33K, His6- and Flag-tagged (designed binder, not shown: small tags and cut ends)
chain: B1 chain with E30K
Molecule B8 yielded a Kd with H3K9me3 peptide [3] of 10 µM.

B9: Cbx7 K33E chromodomain (tags removed) (designed binder)
chain: B1 chain with D5E, D6Q, I7V, L34P, E35K
In the test with H3K9me3 peptide [1], B9 registered a Kd of 20 µM.

B10: Cbx7.V1 back-mutant E38K, His6- and Flag-tagged (designed binder, not shown: small tags and cut ends)
chain: B1 chain with E35K
For B10, the Kd with H3K9me3 peptide [3] came to 2 µM.

B11: Cbx7 Q9D chromodomain (tags removed) (designed binder)
chain: B1 chain with D5E, I7V, E30K, L34P, E35K
B11 came in with a Kd with H3K9me3 peptide [1] of 10 µM.

B12: Cbx8.VD chromodomain (tags removed) (designed binder)
chain: GEDVFAAEALLKRRIRKGRMEYLVKWEGWSQKYSTWEPEENILDARLLAAFEEREREMELYGP
B12 came in with a Kd in the test with H3K9me3 peptide [1] of 20 µM.

B13: Cbx2.VD chromodomain (tags removed) (designed binder)
chain: GEDVFAAECILSKRLRKGKLEYLVKWEGWSSKHNSWEPEENILDPRLLLAFQKKEHEKEVQNR
Consider B13, for which, in the test with H3K9me3 peptide [1], the Kd stood at 5 µM.

For the origin of these results see patent US20260266833A1.
